# Test system: MS2 coat protein
# Assay: apparent KD of MS2 coat protein; higher = weaker reporter binding
# Conditions: Eterna round: R107
# Summary of the method: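 Designed RNA switches were transcribed on-chip from Illumina sequencing clusters. SNAP-549-labelled MS2 coat protein was titrated onto them in twofold steps from 0.7 or 1.5 nM to 3 µM in 100 mM Tris-HCl pH 7.5, 80 mM KCl, 4 mM MgCl2, either without or with constant ligand. Apparent KD reflects the per-design median of normalised cluster binding-curve fits.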
# [1] = input ligand: theophylline 20 uM
# [2] = input ligand: theophylline 2 mM
# [3] = input ligand: tryptophan 2.4 mM
Sequence,apparent KD of MS2 coat protein (input ligand: arginine 13.2 mM) [nM],apparent KD of MS2 coat protein (input ligand: none) [nM],apparent KD of MS2 coat protein [1] [nM],apparent KD of MS2 coat protein [2] [nM],apparent KD of MS2 coat protein [3] [nM]
GAUAUGUUUCGAAGGAGCGGCCCUUGAUCCUCAUGAGACAUGAGGAUCACCCAUGUCUCGGGCCAGGUAGGUCGCGAAAUAUAUC [Astros-omei-mod4],30.3,19.2,32.1,21.4,19.5
GAUAUUUGAAAACAAAUAUCAGUGGGUGAACGAGGACCGGUACGGCCGCCACUCGGACAUGAGGAUCACCCAUGUCCAUGUGAAA [AstrosExyTryA#7],13.9,–,18.2,17.6,–
GAUCCUCGUACGGAUACCAGCGACUAACAUGAGGAUCACCCAUGUGAUAAAGAAAAUAUUUGCCCUUGGCAGCCGAAUAGAUAGU [#21 Same State - Theophylline B],36.5,–,91.5,–,74.2
GAUGAUAUUGCAGAUACCAGACACAUGAGGAUCACCCAUGUCGCUGGGUUACUGGAUCGUGUCCCUUGGCAGCUGCGAUAUCAUC [Austria],69.7,–,379,–,294
GAUUAAACAUGAGGAUCACCCAUGUAUAUACGAGGACCGGUACGGCCGCCACUCGAAAACGAGUAUCCUCGAAUAAACAUGAUAA [AK 2 SS Trypt (A)],27.7,–,48.3,52.8,–
GCACCAGGUACGGAUACCAGAGCAAGCCAAAUGAGUGAACAUGAGGAUCACCCAUGUUUGCUCCCUUGGCAGCCGUACCUGGUGC [ETB NP+V+V2 #11 +-Same Structure],7.91,–,12.2,–,9.35
GCACCAGGUACGGAUACCAGCUGCCCGAGAUACAUGAGGAUCACCCAUGUGACCUGGUUUAGCCCUUGGCAGCUGUACCUGGUGC [#14 Same State - Theophylline B],13,–,13.8,–,14.3
GCACGAGUAAGACCUGACUUCAACAAUGAUACCAGACUAGUAAACGUCCCUUGGCAGCAUCAGACAUGAGGAUCACCCAUGUGGC [theeternabot_exclusion_MS2_Theo_A_44],26.4,–,39.1,–,34.3
GCACUACAUGAGGAUCACCCAUGUGCAGAUACCAGAGGUGUAUGCCUCCCUUGGCAGCUGCGUCGCUCUGGAAACUUAUUGGUUU [Same State Theophylline A GF17],18.3,–,26.6,–,18.6
GCAUGCGAUACCGAUACCAGCUACUCCAUGGCGCUCCACAUGAGGAUCACCCAUGUAAAUAGCCCUUGGCAGCGGUAUUGAGAUG [Anrabegema],16.4,–,53.9,–,21
GCCAUCGGCGGAAGCCGAUGGGAUACAGAAGGAGCGUGGAUUAACACAGGUAGGUCGCUGGACAUGAGGAUCACCCAUGUAAUAG [SSAA #8],17.4,26.2,27.2,32.4,21.7
GCCCUGCGCCCGGGACCGGCAAGAUCCAUGCGAGGACCGGUACGGCCGCCACUCGCAGACGUACAUGAGGAUCACCCAUGUCCUC [theeternabot_exclusion_MS2_Trp_A_24],140,–,838,867,–
GCCGCUGCCGCGAUAUGUAUGGGUGUGUAACGAGGACCGGUACGGCCGCCACUCGCGAUCGCACAUGAGGAUCACCCAUGUGUCC [Exclusion Tryp A GF18],26.5,–,72.4,68,–
GCCGGACUUUCGGCCGCCACUGAGAGAGUCGUGUGAACAUGAGGAUCACCCAUGUAAUAUAUAUACAGGACCGGGAGGGUUGGGC [4.R],10.5,13.7,15.1,14.4,12.4
GCGAACGGACCGUUGCCUUCCUGUGUGCGGCGAGGACCGGUACGGCCGCCACUCGACUGCGUACAUGAGGAUCACCCAUGUUAGA [theeternabot_exclusion_MS2_Trp_A_16],41.2,–,40.2,31.8,–
GCGAUGGAGCGAAGGAGCGGCUGUGACUACAUGAGGAUCACCCAUGUACGAUUGUAAGGUAGCCAGGUAGGUCGCGCUCCAUCGC [SSAB NP+V+V2 #18],14,16.3,22.5,24.6,15.8
GCUAGGUCAUCGGCCGCCACUAACGACGGCUCCAACAUGAGGAUCACCCAUGUGCCACAUGCGCAUAGGACCGGGAUGACCUAGC [SSTB NP+V+V2 #4],25.6,36.9,55,45,14.6
GCUAGUGGCAGAAGGAGCGGCAUACUUGCAAGUGACAUGAGGAUCACCCAUGUAAGGGAAUGCCAGGUAGGUCGCUGCCACUAGC [EAB NP+V+V2 #1 +-Same Structure],34.9,31.7,54.5,38.7,28.5
GCUGCCAUACGAAGGAGCGCUGUUGUAGUGAGGCGAACAUGAGGAUCACCCAUGUGGCAGCAGCAGGUAGGUCGCGUAUGGCAGC [EAB #13],13.7,18.6,35,33.9,26
GGAAAAUAUAGGGAUACCAGAUAUGGCGUUGACAUGAGGAUCACCCAUGUCUUAGCAGUGAUCCCUUGGCAGCCCACACCAUCCG [theeternabot_sameState_MS2_Theo_B_13],40.9,–,61.3,–,64.5

Sequence,apparent KD of MS2 coat protein (input ligand: arginine 13.2 mM) [nM],apparent KD of MS2 coat protein (input ligand: none) [nM],apparent KD of MS2 coat protein [1] [nM],apparent KD of MS2 coat protein [2] [nM],apparent KD of MS2 coat protein [3] [nM]
GGAAACCCGACGGCCGCCACUAACGGUCUCAAAAGAGGUUGAACACAUGAGGAUCACCCAUGUAAUAGGACCGGGUCGUGUGAAA [Design 1],17.9,–,24.9,19.4,–
GGAAGCAGGACUGAUACCAGUCCAGCGAAUCAUACGACGCAACAUGAGGAUCACCCAUGUGACCCUUGGCAGCAGACUGCUACCG [Same State Theophylline B GF 27],33.1,–,37.2,–,32.2
GGACUAACCAGAAGGAGCGACACGCAGAAACUGCAAUUUCCUCCGCACGAGGAUCACCCGUGUCAGGUAGGUCGCUGGUUAGUCG,20.6,22.1,35.1,25.8,21.1
GGACUAACCAGAAGGAGCGACACGCAGAAACUGCUAAUUCCUCCGCACGAGGAUCACCCGUGUCAGGUAGGUCGCUGGUUAGUCG [ArgBX 28],20.3,20.5,28.5,24.3,23.3
GGACUAACCAGAAGGAGCGACGCGCAGAAACUGCAAAAUCCUCCACACGAGGAUCACCCGUGUCAGGUAGGUCGCUGGUUAGUCG [ArgXB 16 #CuTurnoff #MS2Left #StaticStem #Blueprint],30.2,26.6,36.1,27.2,31.3
GGACUAACCAGAAGGAGCGGCACGCAGAAACUGCAAUUUCCUCCACACGAGGAUCACCCGUGUCAGGUAGGUCGCUGGUUAGUCG [ArgBX 29],26.4,22.7,21.8,23.8,22.6
GGACUAACCUGAAGGAGCGACGCGCAGAAACUGCAAAUUCCUCCACACGAGGAUCACCCGUGUCAGGUAGGUCGCAGGUUAGUCG [ArgBX 28],13.6,14.6,18.9,18.2,16.9
GGAUAGGACACGGCCGCCACUAGCUAGGAUACUAGCAACAUUUCCUCACUUGAGGAACACCCAAGUAGGACCGGGUGUCCUAUCG,122,517,724,1360,740
GGAUAGGACACGGCCGCCACUAGCUAGGAUACUAGCAACAUUUCCUCAUCUGAGGAUCACCCAGGUAGGACCGGGUGUCCUAUCG,172,–,683,1070,565
GGAUAGGACACGGCCGCCACUUGCUAGGAUACUAGCAACAUUUCCUCUCAUGAGGAUCACCCAUGAAGGACCGGGUGUCCUAUCG,21.3,–,30.6,23.3,27.3
GGAUUCAACUCGGCCGCCACUGGUGAUCCUAAUGUACAUGAGGAUCACCCAUGUACAUGAGAAUAUAGGACCGGGAGAUAAGUUA [Tryptophan B V3 (+3U)],23.2,–,33.5,32.2,–
GGCACGUACGGAAGGAGCGACUGUUCGACGUGGGUACAUGAGGAUCACCCAUGUCUCCGCAGUCAGGUAGGUCGCCGUACGUGCC [EAB NP+V+V2 #21 +-Same Structure],34.3,42.7,63.6,49.8,38.6
GGCCAGGCAGCGGCCGCCACUUAGUGGGCCGAAUGUCCUUUGCUGAACAUGAGGAUCACCCAUGUAAGGACCGGGCUGUUCCGCA [theeternabot_exclusion_MS2_Trp_B_30],27.4,–,42.3,41.5,–
GGCGCGGUGAUGGUAGCCGGACGCUAGGUACGAGGACCGGUACGGCCGCCACUCGGAGUCCUGGGACAUGAGGAUCACCCAUGUA [Same State Trp A GF18],78.9,161,118,209,63.4
GGCUGACAUGAGGAUCACCCAUGUAGUGAUACCAGUAAGAGAAUAUACCCUUGGCAGCACAGGUAACAACUCGUCUCCAAAGUAA [theeternabot_sameState_MS2_Theo_A_49],53.7,–,55.6,–,38.2
GGGAAAUGAAUAGAAUGAGAUGACACAGAAGGAGCGCGGAUUAACGCAGGUAGGUCGCUGACAACAUGAGGAUCACCCAUGUUUC [#10 Same State - Arginine A],13.7,14.2,17.6,18,14.1
GGGCCCGGGCGCGAGCCCGGGCCCAUUGAUACCAGUGAUAUAUAACGCCCUUGGCAGCGAAUCCUAACAUGAGGAUCACCCAUGU [5.G],35.2,46.3,61.5,71.8,37
GGGCGCUAUCCCGCGAGGGAUAGCGUUCAACGAGGACCGGUACGGCCGCCACUCGAACGAGUGGUGACAUGAGGAUCACCCAUGU [Iaa],39.9,42.5,66.4,53.3,56.4
GGGCGUGUGGUGCGGCGUGCUCCGCUCCGUCGAGGACCGGUACGGCCGCCACUCGACAUGAGGAUCACCCAUGUGCGAGCGCGCG [#1 Exclusion - Tryptophan A Attempt #9 (HarryS)],16.3,9.81,10.5,14.4,24.4

# Source: the supplement of paper PMC9170038
